The record followed here is paper PMC10119312, “Structural insights into RNase J that plays an essential role in Mycobacterium tuberculosis RNA metabolism” (Nature Communications, 2023).

This data set concerns the molecule itself. The experiment in a line: SEC. (In general: SEC sorts molecules by how far they enter the pores of the column.)

B1: Mycobacterium tuberculosis RNase J, full-length wild type (enzyme)
chain: MDVDLPPPGPLTSGGLRVTALGGINEIGRNMTVFEHLGRLLIIDCGVLFPGHDEPGVDLILPDMRHVEDRLDDIEALVLTHGHEDHIGAIPFLLKLRPDIPVVGSKFTLALVAEKCREYRITPVFVEVREGQSTRHGVFECEYFAVNHSTPDALAIAVYTGAGTILHTGDIKFDQLPPDGRPTDLPGMSRLGDTGVDLLLCDSTNAEIPGVGPSESEVGPTLHRLIRGADGRVIVACFASNVDRVQQIIDAAVALGRRVSFVGRSMVRNMRVARQLGFLRVADSDLIDIAAAETMAPDQVVLITTGTQGEPMSALSRMSRGEHRSITLTAGDLIVLSSSLIPGNEEAVFGVIDALSKIGARVVTNAQARVHVSGHAYAGELLFLYNGVRPRNVMPVHGTWRMLRANAKLAASTGVPQESILLAENGVSVDLVAGKASISGAVPVGKMFVDGLIAGDVGDITLGERLILSSGFVAVTVVVRRGTGQPLAAPHLHSRGFSEDPKALEPAVRKVEAELESLVAANVTDPIRIAQGVRRTVGKWVGETYRRQPMIVPTVIEV
notes: also called Mtb-RNase J; WT; not shown: 6xHis-sumo, N-terminal, cleaved
The term stoichiometry N denotes the number of molecules, sites or subunits per partner or assembly. B1: the “stoichiometry N” value amounted to 2.
